Some results are limits rather than exact numbers.

This data set is described as follows: soluble fraction after stress (log2 fold change); higher = more stays soluble; pooled small domains, quantitative proteomics. Particulars: stress: pH 4. The procedure, abridged:
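High-throughput quantitative proteomics was run on pooled custom libraries of small protein domains following pH 4 stress. Fold changes are on a log2 scale; higher values mean more of a domain remained soluble. The fold change in soluble amount is taken as a measure of aggregation propensity.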
In the case of “HMILYDDEYKGPRYRYGLHSRPLSPGAVPKGFIIHSDRPHPDFRHGTLDYPVKLPDDRAANFELIFIGEFD”, the “soluble fraction (log2)” value is -1.19.
For “HMIMMTLGEKIRSIRKAKGMTQQELAEKLNTTKQTIGKYEKGIVTNLPLFRINELARALSTTPAYLTGW”, the “soluble fraction (log2)” value is at least 0.43.
Regarding “HMIMPSDATEAKLLGVLGNEPLHVDEIRNQAELPIEKVSAALALMELKGMVRQVGGMNYVAVR”, the “soluble fraction (log2)” value was -0.263.
Regarding “HMIMQTTSDRINQRMRDLGLQHKDLVAATGASKGTVTNWINGVNNPTGKRLVQLAQALKTTSSWLLTGN”, the “soluble fraction (log2)” value was -0.0389.
As for “HMINDPSALGQRAFVDELLWMAGYVPEKIEIYQTLPNNSRVYRVKLDSVNGGFIFIRWDKKKKEHYV”, the “soluble fraction (log2)” value was -0.444.
As for “HMINEEELLKIENIKRKYPDSKAALMPVLYFFQEKYGFISDDSIKEISQLLNISEVDIKGVVSFYEMFHEK”, the figure is -1.04; as for “HMINEVVSLRDVPSFIGKAKRDVIRIAEENNLKIKINGNGYVKEQTPNPGNKYKSNQEIKVFLEPG”, 0.0157; as for “HMINFSKNIISDTTSIKEAIEILNIISGRDNHILFVLNDKRQLIGTLSDGDVRRGMLASKTISQSVTEVM”, 0.0244.
In the case of “HMINIDESIDESLSEDDAVLDLLERASASFTKAQEALLEGDLGRYQTLIEQADRLVAKALELLDEKN”, the “soluble fraction (log2)” value is -1.34.
With “HMINIQYSYNDGKETLHNLSPEVIAEKIMDDPNGYHIVWKQGMVGWVNANDIDDIAKLLRQKK” the figure was -0.0166.
Take “HMINKDNLIEEILKFINTKIADISSNNPLFDIVAKPYISKVVTNNVSKLDKALSLIADDKGMVDADGLLT”: the “soluble fraction (log2)” value was -0.295.
For “HMINLDGIGEKISRLRKEQGVTIRELSEYTGYSVGFLSNLETGKNSPTVESLQRVAEALRTDIIEILTK”, the “soluble fraction (log2)” value is -0.754.
As for “HMINLNEVLANFQKSYPNLAGFKYDQGMDALVYEGNYIRLNGYMLSRINPTLFSMSPDDIFTYLKNGF”, the figure is -1.22; as for “HMINRMGRLVEALSHMIANTKPGARLPSEPELARQLGVSRATLREAMRTFEAQGMIHRRQGAGTFVVH”, 0.00515; as for “HMINYSQKQLIAIQDELSKRFQALENESTKNNVTGFGVGLHYIDIDLIVNTPEKQKEFREKIMDSPAFRFN”, 0.106.
As for “HMINYYELLKLDMNAAHEEINDAIKLESEKNTIPEDQIRTMKSIFFNTEFKKEYDQRLMNFLLT”, the figure is -1.28.
In the case of “HMIPDAIDPDGRFKWRAGEAVVGFGRHAGEPLKKIAIENPEFLRWILKADFSTDVKKIASDALKGYFPEK”, the “soluble fraction (log2)” value is 0.284.
Take “HMIPDLPAVGVNVHKERRRQQLSLDALAAGSGVSKAMLSQIESGKVNPTVATMWKIAHALGVDFELLLKGE”: the “soluble fraction (log2)” value was -0.00451.
Turning to “HMIPDPPALGSNLHRERRRQQLSLDALAAASGVSKAMLSQIEADKVNPTIATMWKIAHALNIDFETLLRGE”, the “soluble fraction (log2)” value was found to be 0.172.
In the case of “HMIPENKRVLISLTYIYGIGKKISQDILEKANIDSSIKTSQLTDDDVARIRQLIENDYLVEGELRV”, the “soluble fraction (log2)” value worked out at 0.00777.
Turning to “HMIPLPEDVASMRERLALTPEKADELFGLEDGSFARYEHGEEKVPFVVFQLLWLLGKYPHLIGELR”, the “soluble fraction (log2)” value was -0.801.
As for “HMIPRGFSRYYILELLQKKPHTGKEIIDNAIKESGGRWNPSPGLIYPLLGRLLDENLIEETNDGKYK”, the figure is -0.631; as for “HMIPSLTITVNEHSRQITRGTSLYTLRDALYPDADVLVVNGHPADSDRHLEEGDAVVLIRRGA”, -0.394; as for “HMIQIQDIAFSEFLQELDKGNIVEVNIKGDLINGDLINGKKFKTVAPYDPNLVEKLSKQNVRINVEPIN”, -0.0277.
As to “HMIQLKEHDVVRLRETIVENDEKIPAGTRGVVLSVYDGGRAFAVEVADDRAASAIITAFRDQLEVY”, the “soluble fraction (log2)” value is -0.0481.
As for “HMIQNTGMMESGDSIRGMALDAGFPLLMVVGYRGWTRKGNTPDSAAVYTEPFLNAFRLNYYLVEHDE”, the figure is -0.0253; as for “HMIQVNKTQALIIEEMRDNPNITLLELQKTLSLGRTAIQNNVSSLRKRQIIKRVGSNKNGYWEVTDK”, 0.22; as for “HMIRQETYLLVRKAVGALPVQMRKIIELAMQGKKNAEIAAQLSISEGTVHTLKKTAYKKLRDRLQE”, -0.32.
Take “HMIRQGTKQALLIEMLQRPEGASITEIVEATSWQAHTARGAISGALKKKLGLPITSEKHPERGTVYKL”: the “soluble fraction (log2)” value was -0.55.
For “HMISAQEQALRNLKLSNGMTWKALAKALGITERSILSYVAAPGTKGYREMPAEVWHKLENISGH”, the “soluble fraction (log2)” value came out at 0.143.
On to “HMISDAEWTIMKALWQSEDKKMTLKEIAEAVADSGWSYTTVRTMVGRLVEKEAIEADESHPRNFRYSAA”, for which the “soluble fraction (log2)” value was -1.4.
With “HMISEGDIIKGTVIDVNEEEVILDLKYYAQGVIKAENLSNDPDFLAAGKISVGDEIEATVIKMDDGEGNIE”, the “soluble fraction (log2)” value was -0.496.
As for “HMISESIPAKDALLRLLNTAYQTRTNAAGEFYFNDVPPGKYILQASVNDVEIIRENISINEN”, the figure is -0.433.
As for “HMISEWDAAYSYAKQYYEENGHLFVPKKYVTSEGAALGKWIWEQRDSYLGLSSYKISDKKIEMLEDIGMFW”, the “soluble fraction (log2)” value is -2.73.
Take “HMISINVIGEMISGSYGNTPFSRTYEKDIYEQMVKLSDDADQAQTVEEYNKILAEFSLLTTEDLK”: the “soluble fraction (log2)” value was -1.73.
Take “HMISKWGELVDLAVQLDIIQKSGSWFSMGDERIGQGANSVKDYLIANPDIAEKVEAEVRENLWKLN”: the “soluble fraction (log2)” value was -0.351.
Take “HMISKYLRIESDILSAIREGRLKPGDKLPGQSEMRRIYNVSAITVRKAFTDLINDGYLVGVRGSGTYVAKR”: the “soluble fraction (log2)” value came to 0.117.
With “HMISQATMEKMGLTNRERQLVDFIVRGASNQEISEKMFISINTVKIHVSNIFRKAGVRSRTELMDKYP”, the “soluble fraction (log2)” value was -0.693.
For “HMISSKDIINDEDGARLGKIADVEIDVATGKILSVHVYRSFKLLHLFGNKDVVQIPWNKIMKIGSDVVIVE”, the “soluble fraction (log2)” value was -0.198.
As to “HMISVENLSNREFEIFQLIGNGFSTKEMAKKLNLSIYTVESHKKNIKEKLKLKNSSDLSKYAIQWVIMQN”, the “soluble fraction (log2)” value was -1.35.
For “HMITANNYFNEVERIGVETLPETLRKGHDLVVRSTNSGTNWSNYQNNESIRKVIDLYLQKLNEYVSTST”, the “soluble fraction (log2)” value is -0.676.
For “HMITGSIQPKNGKYYAVLNLYDHTGKRRPKWVSTGYTVKGNKKKAQEVLNELTRRYSAQLPPSK”, the “soluble fraction (log2)” value came to 0.22.
With “HMITLPDFVGKDVETVKAWAKENGITLIVNKVEDSAKKDTVISQTPTTYDYSKIMKGSSFTVNVAKE” the figure was 0.0768.
As for “HMITNLEPFKDFVRGFSGLHLEGVGQEKLAAALDERIRKTGSANERDYLQLIMEDVAERLKLINILT”, the “soluble fraction (log2)” value was -1.17.
For “HMITPAARLRALKIRLSVDEVAQIVQRLVNGETVYQIGKPDTGGHAKATVGKINALRLAGQLHFL”, the “soluble fraction (log2)” value was -0.259.
As for “HMITTLLVENLQDVGMRLDHYLVYNLIKYSRSHIQSFIRSGDIRVNGKKVKTGYSLELKDLIHIEMP”, the figure is -1.1; as for “HMITVPKVINMSETQARQTLDALGLNVTLSATQVMNDKIPYGYVAAQSYSAGKEVPAGTTIELTMSIGL”, 0.0236.
In the case of “HMIVDYPSFVGKTKQELEKWAKENNIIIRYRQLSVTASDKVKAQLPATTTYKRIMKGSSIEVELEL”, the “soluble fraction (log2)” value was -0.749.
With “HMIVIMKAKAEEEDVNRVIDTIQSLGLRTQLNLGAERMVVAVIGDISKIGEDNFFRIRAMKGVENTVFVSK” the figure was -0.811.
As for “HMIVMPELRGKDLKEAERLLSSHNLRYELVDSVYDKSLAPGVVVEMVPQSGNTVKPGRIIFLSINA”, the “soluble fraction (log2)” value is -0.272.

The values are drawn from the domain aggregation screens of Martell et al. (2025).
